{
  "source": "patent US20130260394A1",
  "key": {"[1]": {"target": "membrane receptor interacting with BLV (unknown) (human)", "test": "flow cytometry, tagged RBD on blood neutrophils of one CF patient"}, "[2]": {"target": "membrane receptor interacting with BLV (unknown) (human)", "test": "flow cytometry, tagged RBD on sputum neutrophils of one CF patient"}},
  "data": [
    {"substance": "Bovine Leukaemia Virus receptor-binding domain (BLV RBD) (from UniProt P25507 34-215)", "values": [
      {"measurement": "deltaGeomean of fluorescence", "setting": "[1]", "value": 0},
      {"measurement": "deltaGeomean of fluorescence", "setting": "[2]", "value": 140}
    ]}
  ]
}
